Data set [1] has as its target T1, IgE Fc Cε3–4 fragment (human, UniProt P01854, (N-acetylglucosamine)2(mannose)5 hepta-saccharide on N394).
T1 construct: human IgE heavy chain constant region, domains Cε3 and Cε4, as found in the crystals; Not a designed construct: the crystals held this fragment and not the Cε2–4 that was expected; also called IgE Cε3–4; source: HEK-293; a small fraction in the purified IgE Fc Cε2–4 preparation, crystallized with 026 sdab
Nature of the data set: crystal structure; 026 sdab:IgE Fc complex, 5 mg/ml in 20 mM HEPES, 50 mM NaCl, pH 7.2; sitting drops, 0.1 M imidazole pH 7.0, 11-12% PEG 20,000; 3.4 Å. To be noted: both partners purified.

Data set [2] concerns the molecule itself. Described as above.

Here are results for two molecules from article PMC5750235, “Trapping IgE in a closed conformation by mimicking CD23 binding prevents and disrupts FcεRI interaction” (Nature Communications, 2018).

The stoichiometry N is the number of molecules, sites or subunits per partner or assembly.

B1: 026 sdab (VHH)
VHH: EVQLLESGGGLVQPGGSLRLSCAASGFTFGNYDMAWVRQAPGKRPEWVSSIDTGGDITHYADSVKGRFTISRDNAKNTLYLQMNSLRPEDTAVYWCATDEEYALGPNEFDYYGQGTLVTVSS
notes: llama-derived, humanized single-domain antibody; Synthetic gene; also called sdab 026; anti-IgE sdab 026
Turning to B1, the “stoichiometry N” value in data set [1] was 2 sdab per IgE Fc.

B2: IgE Fc Cε3–4 fragment (domain or fragment, human)
chain: RGVSAYLSRPSPFDLFIRKSPTITCLVVDLAPSKGTVNLTWSRASGKPVNHSTRKEEKQRNGTLTVTSTLPVGTRDWIEGETYQCRVTHPHLPRALMRSTTKTSGPRAAPEVYAFATPEWPGSRDKRTLACLIQNFMPEDISVQWLHNEVQLPDARHSTTQPRKTKGSGFFVFSRLEVTRAEWEQKDEFICRAVHEAASPSQTVQRAVSVNP
modifications: (N-acetylglucosamine)2(mannose)5 hepta-saccharide on N394
notes: human IgE heavy chain constant region, domains Cε3 and Cε4, as found in the crystals; Not a designed construct: the crystals held this fragment and not the Cε2–4 that was expected; also called IgE Cε3–4; source: HEK-293; a small fraction in the purified IgE Fc Cε2–4 preparation, crystallized with 026 sdab
Consider B2, for which the binding result in data set [2] is reported as “binds”.
